{
  "source": "paper PMC3064781",
  "about": "(Nucleic Acids Research, 2010)",
  "biological_target": "the molecule itself",
  "experiment": "crystal structure",
  "data": [
    {"protein": "Nep1 from Archaeoglobus fulgidus (enzyme) MGSAFVFLEASLELIPQKIRGHPAVRADAIRRGKRPEKILLDDSKHHTAMKSLEFREKRGRPDIVHQCLLLLLDSPLRDFEVYVHTLNGEIIWVNRETRLPRNYNRFVGLMEKLFEERRITAGDTTLIEFKDVGLRDIVRGRDVLLFREKGGRFEFSELLDGDVAVCIGAFPHGDFFEETLRELGEFKEVSLGTESYTSLYVTSRVLCEYERVRAHKVG", "values": [
      {"measurement": "binding result", "result": "binds"}
    ]}
  ]
}
